Experimental data taken from patent publication US20110162109A1 (BASF PLANT SCIENCE, published 2011).
Blank lines part the entries; values can stand above or below the molecule they belong to.

B1: HUB1 (Histone Monoubiquitination 1), At2g44950, Arabidopsis thaliana (enzyme)
chain: MASTGEPDRKRRHFSSISPSEAAAAVKKQPFFWPSSEDKLDTAVLQFQNLKLSQKLEAQQVECSILEDKLSQIKEKQLPYNSSLKTVHKSWEKLTASVESCSVRVSDSSSGAHRFVNKEDGSSPAVKNDFINRLLETGATESSSSNICSNQMEENGVNTSSQMTQTLYNLVAATEDLRCLKDELYPTVLRTNLGKDLCGQLALSELESEIKSFRGDLDDVLVKFKSLSRELQSHRDADAKVRVDLKRIRGELEDEVVELQQCNGDLSALRAERDATAGAFFPVLSLGNKLATSDRERDKQRDLQDMETVLKELTVLASGRLQQLKNLHEERTKMLGKMSNLQNKSKSVRCISSSQACLSLKDQLEKSKEAVFQYMALLEKLQVEKDSIVWKEREINIKNELGDVSRKTSAVTDSRMASLDSEIQKQLDEKMRIKTRLGNISRERGRKEIFADMKALISSFPEEMSSMRSQLNNYKETAGGIHSLRADVQSLSGVLCRKTKEYEALQLRSADYASQLGDLNATVCDLKNSHEELKLFLDMYKRESTDARDIAEAKEQEYRAWAHVQSLKSSLDEQNLELRVKAANEAEAVSQQMLAAAEAEIADLRQKMDDCKRDVAKHSDILKSKHEEHGTYLSEIQTIGSAYEDIVPQNQRLLLQVTERDDYNIKLFLEGITSRQMQDTLLIDKYIMDKDIQQGSAYASFLSKKSSRIEDQLRFCTDQFQKLAEDKYQKSVSLENLQKKRADIGNGLEQARSRLEESHSKVEQSRLDYGALELELEIERFNRRRIEEEMEIAKKKVSRLRSLIEGSSAIQKLRQELSEFKEILKCKACNDRPKEVVITKCYHLFCNPCVQKLTGTRQKKCPTCSASFGPNDIKPIYI
notes: Full length HUB1; In the TAP experiments N-terminally fused to the TAP tag or the GS-TAP tag; in yeast two-hybrid fused to AD (pDEST22) or BD (pDEST32); all these constructs are written under this one entry; also called HUB1fl; full length HUB1

Tests used:
[1] = molecular target: UBC2, At2g02760 (Arabidopsis thaliana) (UniProt P42745); assay: GS-TAP purification + MALDI-TOF-TOF MS, bait UBC2 (third block); expectance is the MS identification score
[2] = molecular target: HUB1 (Histone Monoubiquitination 1), At2g44950, Arabidopsis thaliana (Arabidopsis thaliana) (UniProt Q8RXD6); assay: GS-TAP purification + MALDI-TOF-TOF MS, bait HUB1 (b′); expectance is the MS identification score
[3] = molecular target: Spen like protein, At1g27750 (Arabidopsis thaliana); assay: GS-TAP purification + MALDI-TOF-TOF MS, bait SL (a); expectance is the MS identification score
[4] = molecular target: T1, HUB2, At1g55250, Arabidopsis thaliana (Arabidopsis thaliana, UniProt Q9C895 1-900); assay: GS-TAP purification + MALDI-TOF-TOF MS, bait HUB2 (b); expectance is the MS identification score
T1 construct: As prey the endogenous protein of Arabidopsis cell culture; as bait N-terminal GS-TAP fusion; in yeast two-hybrid an AD fusion; also called AAG51572.1
T1 sequence: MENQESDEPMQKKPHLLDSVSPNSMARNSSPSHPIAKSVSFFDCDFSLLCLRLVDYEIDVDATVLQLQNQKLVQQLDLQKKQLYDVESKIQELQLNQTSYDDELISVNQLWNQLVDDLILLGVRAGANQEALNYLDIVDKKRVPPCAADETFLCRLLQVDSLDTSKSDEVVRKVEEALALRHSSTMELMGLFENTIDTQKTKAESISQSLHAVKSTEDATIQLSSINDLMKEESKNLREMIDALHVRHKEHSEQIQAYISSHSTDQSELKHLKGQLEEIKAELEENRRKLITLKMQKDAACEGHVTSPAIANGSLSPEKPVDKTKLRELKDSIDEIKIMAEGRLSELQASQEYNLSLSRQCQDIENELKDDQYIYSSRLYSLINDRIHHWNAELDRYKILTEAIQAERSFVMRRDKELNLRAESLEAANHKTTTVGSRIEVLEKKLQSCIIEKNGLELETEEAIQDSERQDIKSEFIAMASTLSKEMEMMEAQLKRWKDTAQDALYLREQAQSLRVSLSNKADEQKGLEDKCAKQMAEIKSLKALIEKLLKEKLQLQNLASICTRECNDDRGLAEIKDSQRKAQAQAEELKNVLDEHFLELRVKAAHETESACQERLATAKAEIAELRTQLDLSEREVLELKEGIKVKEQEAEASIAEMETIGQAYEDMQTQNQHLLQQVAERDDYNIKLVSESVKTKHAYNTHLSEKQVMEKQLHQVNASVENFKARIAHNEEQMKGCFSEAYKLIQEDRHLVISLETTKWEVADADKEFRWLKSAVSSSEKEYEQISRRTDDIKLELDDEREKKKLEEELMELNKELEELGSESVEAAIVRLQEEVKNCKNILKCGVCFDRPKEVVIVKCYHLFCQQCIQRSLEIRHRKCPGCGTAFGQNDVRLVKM

[5] = molecular target: HUB1 (Histone Monoubiquitination 1), At2g44950, Arabidopsis thaliana (Arabidopsis thaliana) (UniProt Q8RXD6); assay: GS-TAP purification + MALDI-TOF-TOF MS, bait HUB1 (a′); expectance is the MS identification score
[6] = molecular target: T1, HUB2, At1g55250, Arabidopsis thaliana; assay: GS-TAP purification + MALDI-TOF-TOF MS, bait HUB2 (a); expectance is the MS identification score
[7] = molecular target: HUB1 (Histone Monoubiquitination 1), At2g44950, Arabidopsis thaliana (Arabidopsis thaliana) (UniProt Q8RXD6); assay: GS-TAP purification + MALDI-TOF-TOF MS, bait HUB1 (b); expectance is the MS identification score
[8] = molecular target: Spen like protein, At1g27750 (Arabidopsis thaliana); assay: GS-TAP purification + MALDI-TOF-TOF MS, bait SL (b); expectance is the MS identification score
[9] = molecular target: SEUSS, At1g43850 (Arabidopsis thaliana) (UniProt Q8W234); assay: GS-TAP purification + MALDI-TOF-TOF MS, bait SEUSS (b); expectance is the MS identification score
[10] = molecular target: SEUSS, At1g43850 (Arabidopsis thaliana) (UniProt Q8W234); assay: GS-TAP purification + MALDI-TOF-TOF MS, bait SEUSS (a); expectance is the MS identification score
[11] = molecular target: the molecule itself; assay: TAP with N-terminally TAP-tagged HUB1 from Arabidopsis cell culture, mass spectrometry; column Confirmed
Description: Because the RING proteins have their functionally important domain at the C-terminus, an N-terminal fusion was prepared instead of the traditional C-terminal fusion by cloning both full length and the point mutant form of HUB1 (HUB1pm, HUB1fl). The Arabidopsis cell cultures were transformed with the two constructs and cultivated on 10 litre scale, harvested and purified by TAP (Van Leene et al., Mol. Cell. Proteomics 6, 1226-38, 2007). The protein extracts were separated on 1-D SDS-PAGE gels and isolated from gel for protein identification by mass spectrometry (Laukens et al., Proteomics. 4, 720-7, 2004, Van Leene et al., 2007). Two cut offs were used resulting in “confirmed” and “to be confirmed” candidate interactor lists (Table I).
In the data set of confirmed interactors TAP HUB1 and HUB2 were present, […] the dimer formation between the homologues. In addition, the acetyltransferase GCN5, RNA binding proteins and a KH domain protein were identified as HUB1 interacting proteins. Most of these proteins are known to be localized in nucleus or nucleoli. GFP constructs of HUB1 have also been localized to nucleus (Liu et al., 2007). When HUB1pm was used for TAP purification no HUB2 could be identified as an interacting protein.

[12] = molecular target: histone H2B
[13] = molecular target: B1; assay: yeast two-hybrid
[14] = molecular target: T1, HUB2, At1g55250, Arabidopsis thaliana; assay: yeast two-hybrid

Chain of SEUSS, At1g43850 (Arabidopsis thaliana) (Q8W234 whole entry): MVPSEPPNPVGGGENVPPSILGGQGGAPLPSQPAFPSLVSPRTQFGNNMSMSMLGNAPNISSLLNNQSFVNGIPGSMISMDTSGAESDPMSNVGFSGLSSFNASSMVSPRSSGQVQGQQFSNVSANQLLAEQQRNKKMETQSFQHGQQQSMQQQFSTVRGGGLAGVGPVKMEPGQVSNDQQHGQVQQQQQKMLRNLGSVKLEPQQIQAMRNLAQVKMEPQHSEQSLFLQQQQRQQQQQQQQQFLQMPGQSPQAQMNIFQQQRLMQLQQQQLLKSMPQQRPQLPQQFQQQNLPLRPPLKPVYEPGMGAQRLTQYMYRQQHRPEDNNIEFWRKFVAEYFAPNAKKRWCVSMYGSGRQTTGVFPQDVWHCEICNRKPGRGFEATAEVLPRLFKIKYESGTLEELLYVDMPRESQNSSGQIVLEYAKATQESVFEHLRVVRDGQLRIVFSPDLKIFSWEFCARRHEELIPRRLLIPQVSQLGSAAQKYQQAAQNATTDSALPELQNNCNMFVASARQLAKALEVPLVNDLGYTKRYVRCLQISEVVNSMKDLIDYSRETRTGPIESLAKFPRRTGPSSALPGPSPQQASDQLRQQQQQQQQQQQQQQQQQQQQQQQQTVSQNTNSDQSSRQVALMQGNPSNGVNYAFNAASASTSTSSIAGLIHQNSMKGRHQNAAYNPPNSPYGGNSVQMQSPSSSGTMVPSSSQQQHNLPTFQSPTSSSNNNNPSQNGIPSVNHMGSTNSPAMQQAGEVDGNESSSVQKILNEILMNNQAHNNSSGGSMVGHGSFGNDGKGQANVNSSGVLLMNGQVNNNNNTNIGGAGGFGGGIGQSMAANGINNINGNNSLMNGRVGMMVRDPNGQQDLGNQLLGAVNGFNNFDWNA

- Expectance [1]: 0.00082
Molecule: AtUBA1, AT2G30110 (from UniProt P93028 1-1080) (enzyme)

- Expectance [2]: 3.3e-09
- Expectance [3]: 0.00054
- Expectance [4]: 1.6e-09
- Expectance [5]: 2.1e-09
- Expectance [6]: 1.3e-08
- Expectance [7]: 1.6e-08
- Expectance [8]: 2.6e-12
Molecule: KH domain protein, At1g51580

- Expectance [2]: 0.024
- Expectance [4]: 1e-24
- Expectance [5]: 6.5e-16
- Expectance [6]: 0.00097
Molecule: Spen like protein, At1g27750

- binding result [13]: no binding
- binding result [14]: no binding
B2: UBC1 (E2 conjugating enzyme, Arabidopsis thaliana) (enzyme, UniProt P25865 1-152, looked up)
chain: MSTPARKRLMRDFKRLQQDPPAGISGAPQDNNIMLWNAVIFGPDDTPWDGGTFKLSLQFSEDYPNKPPTVRFVSRMFHPNIYADGSICLDILQNQWSPIYDVAAILTSIQSLLCDPNPNSPANSEAARMYSESKREYNRRVRDVVEQSWTAD
notes: Yeast two-hybrid fusion

- binding result [13]: no binding
- binding result [14]: no binding
B4: UBC3 (E2 conjugating enzyme, Arabidopsis thaliana) (enzyme, UniProt P42746 1-150, looked up)
chain: MTTPAKKRLMWDFKRLQKDPPVGISGAPQDNNIMHWNALIFGPEDTPWDGGTFKLTLHFTEDYPNKPPIVRFVSRMFHPNIYADGSICLDILQNQWSPIYDVAAVLTSIQSLLCDPNPDSPANAEAARLFSENKREYNRKVIEIVEQSYV
notes: Yeast two-hybrid fusion

Further lines, the molecule ahead of its results:

Molecule: AtUBA2, AT5G06460 (from UniProt P92974 1-1077) (enzyme)
- Expectance [1]: 0.00026

Molecule: LUH, At2G32700 (from UniProt O48847 1-787)
- Expectance [9]: 2.1e-82
- Expectance [10]: 3.3e-99

Molecule: B1
- binding result [11]: binds
- monoubiquitination of histone H2B in the in vitro ubiquitination assay (protein gel blot) [12]: shift of H2B by 10 kDa

B3: UBC2, At2g02760 (enzyme, Arabidopsis thaliana, UniProt P42745 1-152, looked up)
chain: MSTPARKRLMRDFKRLQQDPPAGISGAPQDNNIMLWNAVIFGPDDTPWDGGTFKLSLQFSEDYPNKPPTVRFVSRMFHPNIYADGSICLDILQNQWSPIYDVAAILTSIQSLLCDPNPNSPANSEAARMFSESKREYNRRVREVVEQSWTAD
notes: As bait N-terminal GS-TAP fusion; fusion protein in yeast two-hybrid; also called E2 conjugating enzyme UBC2
- binding result [13]: no binding
- binding result [14]: no binding
